B1: PTPLAD1 (parent)
chain: YINFRHLYKQRRRRYGQKKKKIH
B2: CDC25A (parent)
chain: KKFRTKSRTWAGEKSKREMYSRLK

Variants of: B1
Assay: protein stability index of a GFP-peptide fusion (GPS, HEK-293T) (PSI 1-6); higher = more stable
Details: c terminus: native
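Further: lentivirally expressed fusions sorted by FACS into six bins by GFP to DsRed ratio, PSI derived from sequencing read proportions per bin multiplied by bin number.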

Protein stability index, by site and new letter:
I22: M 2.23; P 1.86; H 2.13; Y 2.08; C 1.86; S 2.33; T 2.1; R 1.81; W 2.22; G 1.5; A 2.02; E 2.66; L 2.67; Q 2.44; V 1.41; D 2.56; F 1.72; N 1.9
H23: K 1.58; P 2.07; E 1.04; D 2.09; C 1.05; W 2.25; F 1.11; S 1.48; T 3.73; V 2.58
K21: Y 1.35; R 2.49; V 1.6; T 2.7; P 1.99; Q 1.39; S 2.33; W 2.37

Variants of: B2
Assay: as above
Details: c terminus: a fixed tail appended

Protein stability index, by site and new letter:
L23: I 3.33; S 3.92; T 3.61; W 2.41; H 3.39; V 3.65; R 4.46
R4: K 3.18; M 3.46; N 3.2; P 3.09; D 3.04; H 3.6; V 3.79
S7: H 3.51; A 3.3; I 2.9; G 2.78; N 3.17; D 3.24; E 2.92
S21: P 2.99; C 2.56; R 2.73; K 3.08; H 2.69
W10: Y 3.14; N 3.6; V 3.9; L 3.53; T 3.56
S15: H 3.12; V 2.52; L 2.58
A11: G 3.2; V 2.74; H 3.01; R 2.25; M 2.14; D 2.92; K 2.7; W 2.61
G12: W 2.5; N 2.26; L 2.11; A 3.21; Y 2.61; Q 2.86; K 2.42
T5: V 3.85; R 3.06; K 3.12; H 2.81
K16: Y 2.38; M 3.99; R 1.22; N 3; Q 3.71; I 2.28; H 3.56
K14: N 4.05; G 4.36; S 2.44
K1: R 3.04; Q 3.35; N 2.7; E 3.74; T 4.1
T9: A 2.79; V 2.55; D 3.54
Y20: D 3.35; L 2.33
R8: M 2.25; K 3.31; W 4.2; I 3.39; F 2.88; L 3.86; N 3.38; Q 3.37
K24: E 3.27; A 2.37; S 3.16; D 3.13
E18: N 3; D 3.12; W 4.23; C 3.07
F3: M 3.61; T 3.59; Y 3
K2: P 2.6; S 3.06; H 1.93
M19: P 3.41; S 4.21; Q 4.14; I 2.8; A 3.13; W 2.77
K6: H 3.44; N 2.92; S 2.32; G 3.23; I 2.01; V 2.42; T 2.81
R17: G 2.99; Y 3.4; N 2.24; L 2.84; V 2.97; F 2.86
R22: P 2.33; S 2.79; Y 2.03; M 3.13; K 2.92; N 3.81; V 3.24; F 2.99
E13: S 2.97; F 2.19; Y 3.25; Q 3.34; G 3.29; P 3.27; D 3.61; T 3.43; R 3.63

Source: the supplement of paper PMC10567573
